For eleven molecules, Ka and binding signal results are on record in publication PMC5387809, “The Combination of Computational and Biosensing Technologies for Selecting Aptamer against Prostate Specific Antigen”.

One data set deals with T1, prostate specific antigen (PSA) (human, UniProt P07288 25-261). Briefly: SPR; ka 3.37e3 M-1s-1, kd 12.34e-3 s-1; PBS (10 mM Na2HPO4, 137 mM NaCl, 2 mM KH2PO4, 2.7 mM KCl), pH 7.4; SPR at 25 C, 50 ul/min; PSA 2 ng/ml; DNA/PEG thiol SAM on gold; QCM temperature not stated. The following applies: protein: commercial; hairpin (predicted).
T1 sequence (P07288 25-261): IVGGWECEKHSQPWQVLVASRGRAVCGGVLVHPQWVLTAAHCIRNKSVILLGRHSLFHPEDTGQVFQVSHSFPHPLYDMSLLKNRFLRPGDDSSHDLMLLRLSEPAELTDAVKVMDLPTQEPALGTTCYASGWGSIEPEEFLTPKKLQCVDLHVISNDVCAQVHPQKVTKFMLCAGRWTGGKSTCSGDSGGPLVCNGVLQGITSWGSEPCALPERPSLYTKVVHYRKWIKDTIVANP
With TTTTTAATATCCGGGTTCCCGGTTGTCTCTTT (ssDNA, 5' C6 thiol) [PSAG24], the Ka was 0.27 ± 0.04 10^6 M-1.

A further data set has as its target T1, prostate specific antigen (PSA). The data set is described as follows: QCM; 2 ng/ml PSA injected; PBS (10 mM Na2HPO4, 137 mM NaCl, 2 mM KH2PO4, 2.7 mM KCl), pH 7.4; SPR at 25 C, 50 ul/min; PSA 2 ng/ml; DNA/PEG thiol SAM on gold; QCM temperature not stated. The following applies: protein: commercial; hairpin (predicted).
For TTTTTACGCACCGGGTACGTTTTTTGGCCTTT (ssDNA, 5' C6 thiol) [PSAG212], the binding signal is 59.5 ± 5.8 Hz (frequency drop). In the case of TTTTTAATATCCGGGGAACGTCGTGGCCCTTT (ssDNA, 5' C6 thiol) [PSAG28], the binding signal is 166 ± 6.7 Hz (frequency drop). Take TTTTTAATATCCGGGTTCCCGGTTGTCTCTTT (ssDNA, 5' C6 thiol) [PSAG24]: the binding signal was 131 ± 4.9 Hz (frequency drop).

Another data set has the same target. Briefly: SPR; ka 3.11e3 M-1s-1, kd 11.23e-3 s-1; PBS (10 mM Na2HPO4, 137 mM NaCl, 2 mM KH2PO4, 2.7 mM KCl), pH 7.4; SPR at 25 C, 50 ul/min; PSA 2 ng/ml; DNA/PEG thiol SAM on gold; QCM temperature not stated. The following applies: protein: commercial; hairpin (predicted).
With TTTTTACGCACCGGGTACGTTTTTTGGCCTTT (ssDNA, 5' C6 thiol) [PSAG212], the Ka was 0.28 ± 0.03 10^6 M-1.

The target is the same in another data set. Briefly: QCM; 2 ng/ml PSA injected; PBS (10 mM Na2HPO4, 137 mM NaCl, 2 mM KH2PO4, 2.7 mM KCl), pH 7.4; SPR at 25 C, 50 ul/min; PSA 2 ng/ml; DNA/PEG thiol SAM on gold; QCM temperature not stated. The settings on record: protein: commercial; hairpin (predicted). The source holds these as a separate data set.
For TTTTTACGCACCGGGTACGTTTTTTGGCCTTT (ssDNA, 5' C6 thiol) [PSAG119], the binding signal is 91.3 ± 9.7 Hz (frequency drop). As to TTTTTCTGGTCCGGGTACGTTTTTTGGCCTTT (ssDNA, 5' C6 thiol) [PSAG17], the binding signal was 37.3 ± 1.9 Hz (frequency drop).

For TTTTTAATATCCGGGTACGTTTTTTGGCCTTT (ssDNA, 5' C6 thiol) [PSAG117], the binding signal was 82.9 ± 5.8 Hz (frequency drop). For TTTTTACTTAATGCGGAACGTCGTGGCCCTTT (ssDNA, 5' C6 thiol) [PSAG112], the binding signal is 71.7 ± 1.3 Hz (frequency drop). Regarding TTTTTCCGCACCGGGTACGGTCGTGGCCCTTT (ssDNA, 5' C6 thiol) [PSAG114], the binding signal was 63 ± 5.4 Hz (frequency drop). Take TTTTTCTGTTGCCCGGAACGTCGTGGCCCTTT (ssDNA, 5' C6 thiol) [PSAG11]: the binding signal is 19.2 ± 1.7 Hz (frequency drop). Turning to TTTTTCCGCACAACTTGCCATCAAATATCTTT (ssDNA, 5' C6 thiol) [PSAG118], the binding signal was 24.9 ± 3.9 Hz (frequency drop). TTTTTCTGGAATGATTTCCCGGTTGTCTCTTT (ssDNA, 5' C6 thiol) [PSAG15]: the binding signal is 108 ± 14 Hz (frequency drop).
